From US12060408B2, “Screening assays, modulators and modulation of activation of Receptor for Advanced Glycation End-products (RAGE)” (Monash University, priority 2017, dated 2024)
Values belong to the molecule of their own block, whether it stands above or below them. Ends that are not written are not given here.

How the values were obtained:
[1] = molecular target: T1, CCR1 (Homo sapiens, UniProt P32246); test: Receptor-HIT BRET, β-arr2/Venus with RAGE/Rluc8 and CCR1; format: cell-based; settings: in the presence of CCR1
T1 construct: expressed in transfected cells; host or cells: HEK293FT, transient
From the text: (§1) Bioluminescence Resonance Energy Transfer (BRET)
(§2) BRET is an established technology for studying protein-protein proximity in live cells, particularly involving GPCRs (Pfleger and Eidne, 2006). One protein of interest was linked to a bioluminescent donor enzyme, Rluc8, a variant of Renilla luciferase, and a second linked to an acceptor fluorophore, Venus, a variant of green fluorescent protein. If in close proximity (<10 nm), energy resulting from the rapid oxidation of a cell-permeable coelenterazine substrate by the donor can transfer to the acceptor, which in turn fluoresces at a longer characteristic wavelength.
(§3) Plasmids were transiently co-expressed in human embryonic kidney (HEK) 293FT cells and BRET measurements taken at 37° C. using a POLARstar Omega or LUMIstar plate reader (BMG Labtech, Mornington, Victoria, Australia) with 460-490 nm (‘donor emission’) and 520-550 nm (‘acceptor emission’) filters, or a VICTOR Light plate reader (Perkin Elmer, Glen Waverley, Victoria, Australia) with 400-475 nm (‘donor emission’) and 520-540 nm (‘acceptor emission’) filters, or a CLARIOstar plate reader (BMG Labtech, Mornington, Victoria, Australia) with 420-480 nm (‘donor emission’) and 520-620 nm (‘acceptor emission’) filters. […]
(§4) For BRET kinetic assays, the final pre-treatment reading is presented at the zero time point (time of ligand/vehicle addition). […]

[2] = molecular target: T2, CCR7 (Homo sapiens, UniProt P32248); test: Receptor-HIT BRET, β-arr2/Venus with RAGE/Rluc8 and CCR7; format: cell-based; settings: in the presence of CCR7
T2 construct: expressed in transfected cells; host or cells: HEK293FT, transient
From the text: as §1, §2, §3, §4

[3] = molecular target: T3, CCR6 (Homo sapiens, UniProt P51684); test: Receptor-HIT BRET, β-arr2/Venus with RAGE/Rluc8 and CCR6; format: cell-based; settings: in the presence of CCR6
T3 construct: expressed in transfected cells; host or cells: HEK293FT, transient
From the text: as §1, §2, §3, §4

[4] = molecular target: T4, CXCR1 (Homo sapiens, UniProt P25024); test: Receptor-HIT BRET, β-arr2/Venus with RAGE/Rluc8 and CXCR1; format: cell-based; settings: in the presence of CXCR1
T4 construct: expressed in transfected cells; host or cells: HEK293FT, transient
From the text: as §1, §2, §3, §4

[5] = molecular target: T5, CXCR2 (Homo sapiens, UniProt P25025); test: Receptor-HIT BRET, β-arr2/Venus with RAGE/Rluc8 and CXCR2; format: cell-based; settings: in the presence of CXCR2
T5 construct: expressed in transfected cells; host or cells: HEK293FT, transient
From the text: as §1, §2, §3, §4

[6] = molecular target: T6, CXCR3 (Homo sapiens, UniProt P49682); test: Receptor-HIT BRET, β-arr2/Venus with RAGE/Rluc8 and CXCR3; format: cell-based; settings: in the presence of CXCR3
T6 construct: expressed in transfected cells; host or cells: HEK293FT, transient
From the text: as §1, §2, §3, §4

[7] = molecular target: T7, CXCR4 (Homo sapiens, UniProt P61073); test: Receptor-HIT BRET, β-arr2/Venus with RAGE/Rluc8 and CXCR4; format: cell-based; settings: in the presence of CXCR4
T7 construct: expressed in transfected cells; host or cells: HEK293FT, transient
From the text: as §1, §2, §3, §4

[8] = molecular target: TIRAP (Homo sapiens, UniProt P58753); settings: Putranto et al., 2013; cited from earlier work
[9] = system: RAGE ligand-dependent signalling; settings: Putranto et al., 2013; cited from earlier work
[10] = system: U-87MG cells; settings: Putranto et al., 2013; cited from earlier work
[11] = system: Human microvascular endothelial cells (HMEC); test: Ang II-induced pro-inflammatory signalling (ICAM-1, MCP-1 RT-PCR) in HMEC; format: cell-based; settings: overexpression of construct
Description: Primary aortic endothelial cells (PMAEC) were isolated from the aortae of (wild-type) C57bl6 mice and AGER KO mice and cultured in Dulbecco's modified Eagle's medium (DMEM)/F12 endothelial cell growth supplement (ECGS) supplemented media. Chinese Hamster Ovary (CHO) cells were cultured using F12 media (10% FCS with 2 mM glutamine). Human microvascular endothelial cells (HMEC) were cultured in MCDB 131 medium (10% FCS with 10 mM glutamine, EGF and hydrocortisone).
Cellular Expression of Pro-Inflammatory Markers and Mediators by Quantitative Real-Time PCR
After 2 hours of exposure to Ang II (1 μM) or the RAGE ligand, S100A8/A9 (5 ng/ml) cells were placed in Trizol, mRNA extracted and cDNA synthesized. Changes in the gene expression of the NFκB subunit, p65 (RelA) or NFκB-activated target genes (e.g ICAM-1, VCAM-1) were estimated by quantitative real-time RT-PCR, performed using the TaqMan system based on real-time detection of accumulated fluorescence (ABI Prism 7700, Perkin-Elmer Inc, PE Biosystems, Foster City, CA, USA). Gene expression was normalized to 18S mRNA and reported as fold change compared to the level of expression in untreated control mice/cells, which were given an arbitrary value of 1.

[12] = molecular target: T8, AT1 (Homo sapiens, UniProt P30556); test: BRET between mCherry/RAGE338-361 and luciferase-tagged AT1; format: cell-based; design: expressed in transfected cells; host or cells: HEK293FT, transient
T8 sequence (P30556 1-359): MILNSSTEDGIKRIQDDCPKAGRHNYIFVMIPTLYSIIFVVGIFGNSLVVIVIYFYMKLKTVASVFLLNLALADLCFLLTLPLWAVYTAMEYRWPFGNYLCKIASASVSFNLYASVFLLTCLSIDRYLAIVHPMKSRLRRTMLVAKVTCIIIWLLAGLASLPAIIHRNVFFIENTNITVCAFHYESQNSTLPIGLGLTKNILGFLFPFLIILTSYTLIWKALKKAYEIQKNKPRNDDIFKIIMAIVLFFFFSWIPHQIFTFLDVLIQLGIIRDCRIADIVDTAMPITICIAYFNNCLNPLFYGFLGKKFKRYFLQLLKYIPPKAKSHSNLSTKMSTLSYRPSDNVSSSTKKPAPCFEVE
Description: FIG. 21A. BRET between mCherry/RAGE338-361 and Nluc/AT1 is increased with Ang II. Data are presented as mean±SEM; n=3-5.
FIG. 21D. Lack of Ang II-induced BRET signal between AT1/Rluc8 and mCherry/RAGE338-361 where cells were transfected with 50 ng AT1/Rluc8 cDNA, 300 ng RAGE/Venus cDNA and 0, 50, 100, 200, 300 or 400 ng of mCherry/RAGE338-361 CDNA or pcDNA3 control plasmid as indicated. Data are presented as mean±SEM; n=3-4. Filters: mCherry 650 nm/Rluc8 450 nm.
as §1
BRET is an established technology for studying protein-protein proximity in live cells, particularly involving GPCRs (Pfleger and Eidne, 2006). […]
as §3

[13] = molecular target: T9, CXCR6 (Homo sapiens, UniProt O00574); test: Receptor-HIT BRET, β-arr2/Venus with RAGE/Rluc8 and CXCR6; format: cell-based; settings: in the presence of CXCR6
T9 construct: expressed in transfected cells; host or cells: HEK293FT, transient
From the text: as §1, §2, §3, §4

[14] = molecular target: T10, CCR10 (Homo sapiens, UniProt P46092); test: Receptor-HIT BRET, β-arr2/Venus with RAGE/Rluc8 and CCR10; format: cell-based; settings: in the presence of CCR10
T10 construct: expressed in transfected cells; host or cells: HEK293FT, transient
From the text: as §1, §2, §3, §4

T5 sequence (P25025 whole entry): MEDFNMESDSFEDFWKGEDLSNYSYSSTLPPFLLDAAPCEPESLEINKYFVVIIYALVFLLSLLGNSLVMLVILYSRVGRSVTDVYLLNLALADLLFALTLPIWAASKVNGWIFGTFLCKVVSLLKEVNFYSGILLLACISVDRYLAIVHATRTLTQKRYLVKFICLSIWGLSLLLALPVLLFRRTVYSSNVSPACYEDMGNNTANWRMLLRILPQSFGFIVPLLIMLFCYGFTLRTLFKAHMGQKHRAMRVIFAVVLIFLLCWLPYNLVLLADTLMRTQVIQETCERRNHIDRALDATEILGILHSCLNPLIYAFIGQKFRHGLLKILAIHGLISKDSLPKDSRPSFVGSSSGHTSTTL
T5 sequence (P32121 whole entry partner): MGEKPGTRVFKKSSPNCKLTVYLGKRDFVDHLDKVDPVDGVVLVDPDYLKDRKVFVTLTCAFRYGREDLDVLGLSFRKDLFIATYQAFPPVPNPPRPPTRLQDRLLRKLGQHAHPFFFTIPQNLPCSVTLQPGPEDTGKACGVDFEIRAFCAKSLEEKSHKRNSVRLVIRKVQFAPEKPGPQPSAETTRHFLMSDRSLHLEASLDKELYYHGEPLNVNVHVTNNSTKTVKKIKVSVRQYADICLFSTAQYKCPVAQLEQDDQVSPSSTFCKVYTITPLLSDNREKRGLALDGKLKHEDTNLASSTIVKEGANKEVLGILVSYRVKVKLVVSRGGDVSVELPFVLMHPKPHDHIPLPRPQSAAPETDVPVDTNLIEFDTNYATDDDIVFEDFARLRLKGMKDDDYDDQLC
T10 sequence (P46092 whole entry): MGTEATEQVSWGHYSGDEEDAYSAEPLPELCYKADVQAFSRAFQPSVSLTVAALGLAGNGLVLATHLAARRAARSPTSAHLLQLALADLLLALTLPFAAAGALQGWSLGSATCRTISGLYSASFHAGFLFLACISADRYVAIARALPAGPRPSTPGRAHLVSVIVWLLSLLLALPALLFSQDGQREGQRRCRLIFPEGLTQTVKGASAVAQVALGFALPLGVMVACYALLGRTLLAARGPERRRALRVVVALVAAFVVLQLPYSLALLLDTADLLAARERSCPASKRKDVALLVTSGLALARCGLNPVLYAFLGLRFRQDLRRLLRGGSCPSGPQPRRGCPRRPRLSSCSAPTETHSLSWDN
T10 sequence (P32121 whole entry partner): as the sequence (P32121 whole entry partner) above
Chain of TIRAP (P58753 whole entry, species assumed): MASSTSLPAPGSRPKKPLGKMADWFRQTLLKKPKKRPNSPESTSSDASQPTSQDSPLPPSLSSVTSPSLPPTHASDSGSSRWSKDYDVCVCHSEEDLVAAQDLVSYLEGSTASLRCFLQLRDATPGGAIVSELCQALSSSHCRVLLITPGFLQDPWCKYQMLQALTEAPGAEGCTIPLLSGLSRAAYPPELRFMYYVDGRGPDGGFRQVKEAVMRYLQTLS
T3 sequence (P51684 whole entry): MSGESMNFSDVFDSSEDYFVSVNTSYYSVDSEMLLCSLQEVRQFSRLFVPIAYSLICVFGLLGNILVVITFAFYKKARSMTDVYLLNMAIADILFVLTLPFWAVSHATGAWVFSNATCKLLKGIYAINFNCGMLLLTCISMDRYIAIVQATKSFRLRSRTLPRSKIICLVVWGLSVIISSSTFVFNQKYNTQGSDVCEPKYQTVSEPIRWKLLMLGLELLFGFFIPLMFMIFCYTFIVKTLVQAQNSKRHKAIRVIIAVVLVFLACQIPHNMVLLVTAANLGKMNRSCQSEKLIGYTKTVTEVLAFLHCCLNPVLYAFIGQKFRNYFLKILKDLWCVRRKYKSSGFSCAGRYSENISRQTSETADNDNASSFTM
T3 sequence (P32121 whole entry partner): as the sequence (P32121 whole entry partner) above
T9 sequence (O00574 whole entry): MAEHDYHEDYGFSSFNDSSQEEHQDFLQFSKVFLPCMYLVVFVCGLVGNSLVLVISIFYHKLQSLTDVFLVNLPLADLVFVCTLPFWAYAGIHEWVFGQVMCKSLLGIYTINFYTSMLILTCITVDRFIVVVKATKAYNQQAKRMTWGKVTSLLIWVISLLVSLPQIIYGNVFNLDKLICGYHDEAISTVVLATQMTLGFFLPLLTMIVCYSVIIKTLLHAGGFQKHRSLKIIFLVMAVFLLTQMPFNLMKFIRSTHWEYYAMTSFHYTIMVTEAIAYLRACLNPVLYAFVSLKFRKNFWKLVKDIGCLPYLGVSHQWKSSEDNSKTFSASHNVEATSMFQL
T9 sequence (P32121 whole entry partner): as the sequence (P32121 whole entry partner) above
T2 sequence (P32248 25-378): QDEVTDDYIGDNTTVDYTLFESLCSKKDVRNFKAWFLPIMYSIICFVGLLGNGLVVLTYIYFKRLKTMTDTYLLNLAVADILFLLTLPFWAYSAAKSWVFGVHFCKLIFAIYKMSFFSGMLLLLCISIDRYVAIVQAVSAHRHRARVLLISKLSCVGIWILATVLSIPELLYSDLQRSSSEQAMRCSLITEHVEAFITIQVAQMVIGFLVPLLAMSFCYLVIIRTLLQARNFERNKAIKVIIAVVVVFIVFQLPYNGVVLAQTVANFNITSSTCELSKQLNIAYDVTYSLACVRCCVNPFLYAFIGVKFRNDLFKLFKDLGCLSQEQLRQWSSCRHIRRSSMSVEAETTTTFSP
T2 sequence (P32121 whole entry partner): as the sequence (P32121 whole entry partner) above
T4 sequence (P25024 whole entry, species assumed): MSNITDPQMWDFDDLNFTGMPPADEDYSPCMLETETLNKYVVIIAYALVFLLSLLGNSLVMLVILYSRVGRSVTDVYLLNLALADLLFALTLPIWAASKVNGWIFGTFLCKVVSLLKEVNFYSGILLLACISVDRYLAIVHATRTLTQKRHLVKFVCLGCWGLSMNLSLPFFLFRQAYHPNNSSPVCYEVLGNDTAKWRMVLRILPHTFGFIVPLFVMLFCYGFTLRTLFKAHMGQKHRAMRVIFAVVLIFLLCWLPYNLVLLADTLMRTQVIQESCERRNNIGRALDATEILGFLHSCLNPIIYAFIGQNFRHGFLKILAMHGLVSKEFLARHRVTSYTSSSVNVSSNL
T4 sequence (P32121 whole entry partner, species assumed): as the sequence (P32121 whole entry partner) above
T1 sequence (P32246 whole entry): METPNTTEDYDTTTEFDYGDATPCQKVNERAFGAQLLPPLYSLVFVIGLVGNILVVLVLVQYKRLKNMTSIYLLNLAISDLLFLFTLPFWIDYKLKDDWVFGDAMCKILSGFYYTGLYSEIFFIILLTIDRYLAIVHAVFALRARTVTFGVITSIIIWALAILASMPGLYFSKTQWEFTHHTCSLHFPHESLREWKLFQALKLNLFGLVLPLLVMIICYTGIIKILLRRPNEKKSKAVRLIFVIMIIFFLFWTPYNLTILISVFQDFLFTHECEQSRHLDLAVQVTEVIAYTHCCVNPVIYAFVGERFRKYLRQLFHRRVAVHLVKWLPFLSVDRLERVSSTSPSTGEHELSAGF
T1 sequence (P32121 whole entry partner): as the sequence (P32121 whole entry partner) above
T7 sequence (P61073 whole entry): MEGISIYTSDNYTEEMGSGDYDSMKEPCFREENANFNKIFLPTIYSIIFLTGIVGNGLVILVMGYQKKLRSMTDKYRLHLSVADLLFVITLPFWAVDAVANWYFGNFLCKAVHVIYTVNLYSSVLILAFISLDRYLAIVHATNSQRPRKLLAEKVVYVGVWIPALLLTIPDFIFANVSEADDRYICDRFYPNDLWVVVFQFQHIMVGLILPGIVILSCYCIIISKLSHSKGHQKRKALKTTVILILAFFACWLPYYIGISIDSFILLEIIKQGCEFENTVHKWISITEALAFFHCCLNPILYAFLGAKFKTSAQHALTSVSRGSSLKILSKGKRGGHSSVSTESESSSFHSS
T7 sequence (P32121 whole entry partner): as the sequence (P32121 whole entry partner) above
T6 sequence (P49682 whole entry, species assumed): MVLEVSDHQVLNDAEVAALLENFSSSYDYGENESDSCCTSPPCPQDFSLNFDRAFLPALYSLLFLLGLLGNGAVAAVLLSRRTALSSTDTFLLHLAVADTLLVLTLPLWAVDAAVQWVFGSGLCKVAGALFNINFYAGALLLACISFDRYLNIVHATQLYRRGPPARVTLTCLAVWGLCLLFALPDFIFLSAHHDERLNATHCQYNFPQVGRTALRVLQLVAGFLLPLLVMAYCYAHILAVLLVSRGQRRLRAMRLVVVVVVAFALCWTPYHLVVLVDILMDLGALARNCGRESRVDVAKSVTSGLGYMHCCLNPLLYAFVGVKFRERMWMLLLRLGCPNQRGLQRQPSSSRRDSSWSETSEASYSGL
T6 sequence (P32121 whole entry partner, species assumed): as the sequence (P32121 whole entry partner) above

- recruitment of β-arr2/Venus proximal to RAGE/Rluc8 [1]: recruitment
Molecule: CCL3: chemokine ligand used to activate CCR1

- recruitment of β-arr2/Venus proximal to RAGE/Rluc8 [2]: recruitment
Molecule: CCL19: chemokine ligand used to activate CCR7

- recruitment of β-arr2/Venus proximal to RAGE/Rluc8 [3]: recruitment
Molecule: CCL20: chemokine ligand used to activate CCR6

- recruitment of β-arr2/Venus proximal to RAGE/Rluc8 [4]: Weak
- recruitment of β-arr2/Venus proximal to RAGE/Rluc8 [5]: recruitment
Molecule: CXCL8: chemokine ligand used to activate CXCR1 and CXCR2

- recruitment of β-arr2/Venus proximal to RAGE/Rluc8 [6]: Lack of
Molecule: CXCL11: chemokine ligand used to activate CXCR3

- β-arr2/Venus proximity to RAGE/Rluc8 [7]: reduction
Molecule: CXCL 12: chemokine ligand used to activate CXCR4

Molecule: S391A-RAGE387-395: fragment of RAGE cytosolic tail of Putranto et al., 2013 (ELNQAEEPE; cytosolic tail peptide; UniProt Q15109 387-395, looked up, variant S391A)
- binding to TIRAP [8]: did not show any appreciable binding
- attenuation of apoptosis induced by RAGE ligand S100B [9]: did not attenuate

Molecule: S391E-RAGE387-395: fragment of RAGE cytosolic tail of Putranto et al., 2013, mimicking the phosphorylated state of RAGE (ELNQEEEPE; cytosolic tail peptide; UniProt Q15109 387-395, looked up, variant S391E)
- inhibition of particular aspects of RAGE ligand-dependent signalling (apoptosis, cell migration and invasion) [9]: inhibitor
- growth of U-87MG cells (intracellular adenosine triphosphate content) [10]: not significantly affected

- Ang II-induced BRET signal with AT1/Rluc8 ([12]; cells also transfected with RAGE/Venus cDNA, filters mCherry 650 nm/Rluc8 450 nm): Lack of
- BRET with Nluc/AT1 ([12]; with Ang II): increased
Molecule: mCherry/RAGE338-361: mCherry fusion of RAGE338-361 (LGTLALALGILGGLGTAALLIGVI; also: mCherry fusion)
- inhibition of Ang II-induced ICAM-1 expression [11]: inhibited

- recruitment of β-arr2/Venus proximal to RAGE/Rluc8 [13]: recruitment
B1: CXCL16: chemokine ligand used to activate CXCR6 (protein)
chain: NEGSVTGSCYCGKRISSDSPPSVQFMNRLRKHLRAYHRCLYYTRFQLLSWSVCGGNKDPWVQELMSCLDLKECGHAYSGIVAHQKHLLP

- recruitment of β-arr2/Venus proximal to RAGE/Rluc8 [14]: Lack of
B2: CCL27: chemokine ligand used to activate CCR10 (protein)
chain: FLLPPSTACCTQLYRKPLSDKLLRKVIQVELQEADGDCHLQAFVLHLAQRSICIHPQNPSLSQWFEHQERKLHGTLPKLNFGMLRKMG
